Results taken from patent US20200041497, “ANALYTE DETECTION METHOD” (IMPERIAL COLLEGE INNOVATIONS LIMITED, published 2020).

Tests used:
[1] = target: acetylcholinesterase (AChE) (UniProt O42275 O42275:24-633); test: EMSA; AChE 660 nM, modified aptamer 0-5000 nM; 2.7 mM KCl, 4 mM MgCl2 PBS pH 7.4, 1 h; settings: tags: Sigma-Aldrich, UK; M.W. 280 kDa as stated; chain copies: 4; aptamer with extension hybridised to lambda-DNA 3' end
Experimental: FIG. 20: Electrophoretic mobility shift assay (EMSA) to confirm the binding of the aptamers to thrombin and AChE targets. All gels shown above include a 25 bp ladder and indicated as M in the gel. (i) Thrombin (750 nM) was incubated with different concentration of modified TBA aptamer (top left) ranging from 0-5000 nM in 140 mM NaCl, 20 mM MgCl2, 20 mM PBS buffer pH 7.4 for 45 mins. The 7 lanes on the gel represent the following concentrations of aptamer (from left to right): 0, 50, 100, 250, 500, 1000 and 5000 nM. The samples were then loaded on a 10% native polyacrylamide cast gel and ran for 75 min at 80V and stained with SYBR gold and imaged under UV. […] (ii) modified TBA (200 nM) was then incubated with different concentration of thrombin in the same binding buffer as (i) for 45 min. The […] consist of different thrombin concentration from left to right: 0, 250, 500, 1000, 1500, 2500, 5000 and 7500 nM. The samples were then loaded to a 10% native polyacrylamide cast gels and ran for 75 min at 80V and stained with SYBR gold and imaged. (iii) AChE (660 nM) was incubated with different concentration of modified AChE aptamer ranging from 0-5000 nM in 2.7 mM KCl, 4 mM MgCl2 PBS buffer pH 7.4 for 1 hour. […]

alpha-thrombin [2] = target: T1, alpha-thrombin (Homo sapiens, UniProt P00734;P00734 P00734:328-363,P00734:364-622); test: nanopore translocation on lambda-DNA carrier; 100 mM KCl, 10 mM Tris, 1 mM EDTA pH 8
alpha-thrombin [3] = target: T1, alpha-thrombin; test: EMSA; 200 nM TBA, 0-500 nM thrombin; 50 mM Tris, 140 mM NaCl, 1 mM MgCl2 pH 7.4

Chain of acetylcholinesterase (AChE) (O42275 24-633, one chain of several): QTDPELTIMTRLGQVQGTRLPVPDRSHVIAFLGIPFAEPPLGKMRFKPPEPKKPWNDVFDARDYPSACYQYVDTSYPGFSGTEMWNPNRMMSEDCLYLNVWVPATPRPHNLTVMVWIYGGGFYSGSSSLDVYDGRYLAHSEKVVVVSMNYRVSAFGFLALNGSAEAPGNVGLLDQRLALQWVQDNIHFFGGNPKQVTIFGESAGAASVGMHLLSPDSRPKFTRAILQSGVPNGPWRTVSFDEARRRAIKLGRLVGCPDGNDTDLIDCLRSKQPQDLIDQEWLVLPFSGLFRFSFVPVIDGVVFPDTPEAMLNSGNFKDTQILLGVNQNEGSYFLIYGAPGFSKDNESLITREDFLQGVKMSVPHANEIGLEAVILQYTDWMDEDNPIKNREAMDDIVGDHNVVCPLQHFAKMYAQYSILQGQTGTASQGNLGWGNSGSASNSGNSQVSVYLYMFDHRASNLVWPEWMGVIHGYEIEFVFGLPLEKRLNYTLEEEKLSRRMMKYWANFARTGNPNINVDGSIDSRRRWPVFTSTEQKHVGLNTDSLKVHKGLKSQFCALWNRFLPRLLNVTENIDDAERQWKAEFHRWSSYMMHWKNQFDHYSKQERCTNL

Binder	binding result (alpha-thrombin [2])	further results
AChE detection probe (75-mer) (ssDNA) DNA: GGTTGACTGTAGCTCTGGCAGACGTAGTGTGAAGGTACCGGGCGGCGACCTAAGGTGTCGTGCGTAAGTTTTTAA		binding result [1]: binds
TBA detection probe iii (69-mer) (ssDNA) DNA: GGTTGGTGTGGTTGGTTTTTTTTTGTCTTTTTTTTTTTTCTGTTTTTAAAAACTTACGCACGACACCTT	binds	
TBA detection probe ii (51-mer) (ssDNA) DNA: GGTTGGTGTGGTTGGGGGCGGCGACCTAAGGTGTCGTGCGTAAGTTTTTAA	binds	
GGTTGGTGTGGTTGG (ssDNA) [TBA 15-mer]		binding result (alpha-thrombin [3]): binds
